Consider three molecules from PMC6456722, “Internal cleavage and synergy with twisted gastrulation enhance BMP inhibition by BMPER” (Matrix Biology, 2019).

B3: full-length BMP-binding endothelial cell precursor-derived regulator (FL-BMPER) (natural protein)
chain: not shown
modifications: N-glycosylated (five predicted N-glycosylation sites)
notes: BMPER, human, full length, based on NCBI NM_133468.4; five vWFC domains, one vWFD domain, one TIL domain; His tag is thrombin cleavable; The protein is internally cleaved at the G368DPH371 site; the two fragments stay joined by the disulphide C364-C497; also called full length BMPER; Crossveinless-2 (CV2) in other species

Data set [1] deals with T1, N-BMPER (N-terminal five vWFC domains of human BMPER) (human, UniProt Q8N8U9 40-358, N-glycosylated (four predicted sites in the vWFC domains)).
T1 construct: BMPER, human, the N-terminal five vWFC domains (vWFC1-5), based on NCBI NM_133468.4; His tag is thrombin cleavable; also called C-terminally truncated N-BMPER
T1 sequence (Q8N8U9 40-358): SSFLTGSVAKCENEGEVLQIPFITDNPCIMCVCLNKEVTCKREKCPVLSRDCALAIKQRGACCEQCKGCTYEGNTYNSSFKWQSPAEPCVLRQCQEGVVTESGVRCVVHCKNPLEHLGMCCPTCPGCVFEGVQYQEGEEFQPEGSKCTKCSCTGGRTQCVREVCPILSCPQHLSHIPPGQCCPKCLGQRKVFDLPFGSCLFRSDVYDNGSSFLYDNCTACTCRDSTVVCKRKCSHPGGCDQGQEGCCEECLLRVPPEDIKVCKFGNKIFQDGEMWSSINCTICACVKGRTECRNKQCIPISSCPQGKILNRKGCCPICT
In words: SPR; chordin vWFC2-3 immobilised, N-BMPER in solution phase; Langmuir 1:1 model. The note with it: both partners purified. A general note: In SPR one partner is held on a chip, and binding of the other changes the refractive index at the surface.

Data set [2] deals with T1, N-BMPER (N-terminal five vWFC domains …). Put plainly: SPR; ProteOn XPR36; Tsg immobilised on a GLC chip by amine coupling; FL-BMPER (0-150 nM) or N-BMPER (0-50 nM) as analytes; 10 mM phosphate pH 7.4, 137 mM NaCl, 2.7 mM KCl, 0.005% Tween-20, 25 °C; KD of FL-BMPER by equilibrium analysis, of N-BMPER by Langmuir 1:1 model. The note with it: both partners purified.
The target in data set [3] is B3. The description is as above. The note with it: both partners purified.
Data set [4] deals with the molecule itself. In words: AUC; sedimentation velocity, 230 nm, 45000 rpm, 20 °C.

B1: chordin vWFC2-3 (domain or fragment, UniProt Q9H2X0 703-850, looked up)
chain: NTCFFEGQQRPHGARWAPNYDPLCSLCTCQRRTVICDPVVCPPPSCPHPVQAPDQCCPVCPEKQDVRDLPGLPRSRDPGEGCYFDGDRSWRAAGTRWHPVVPPFGLIKCAVCTCKGGTGEVHCEKVQCPRLACAQPVRVNPTDCCKQC
notes: chordin, domains vWFC2-3
A word on the Kd: it is the equilibrium constant for the complex coming apart. For orientation: koff means the rate constant with which the complex falls apart. Broadly, the kon is a measure of how fast the partners come together. For B1, in data set [1], the Kd was 200 pM, the koff is 8.22e-05 s⁻¹ and the kon was 404000 M⁻¹ s⁻¹.

B2: twisted gastrulation (Tsg) (natural protein, human, UniProt Q9GZX9 26-223, looked up)
chain: CNKALCASDVSKCLIQELCQCRPGEGNCSCCKECMLCLGALWDECCDCVGMCNPRNYSDTPPTSKSTVEELHEPIPSLFRALTEGDTQLNWNIVSFPVAEELSHHENLVSFLETVNQPHHQNVSVPSNNVHAPYSSDKEHMCTVVYFDDCMSIHQCKISCESMGASKYRWFHNACCECIGPECIDYGSKTVKCMNCMF
notes: twisted gastrulation (Tsg)
Consider B2, for which, in data set [2], the Kd was 550 pM, the koff is 0.000228 s⁻¹ and the kon is 415000 M⁻¹ s⁻¹. In data set [3], the Kd is 68400 pM, the koff is 0.000203 s⁻¹ and the kon is 2970 M⁻¹ s⁻¹.

In the case of B3, the binding result in data set [4] is on record as “binds”.
